{"source": "patent US20230382948A1", "about": "“DELIVERY OF ENDOTHELIAL CELL-LADEN MICROGEL ELICITS ANGIOGENESIS IN SELF-ASSEMBLING ULTRASHORT PEPTIDE HYDROGELS” (KING ABDULLAH UNIVERSITY OF SCIENCE AND TECHNOLOGY, priority 2020, published 2023)", "key": {"[1]": {"test": "Microgel stability under cell culture procedures", "type": "physicochemical", "details": "for Microgel size and shape stability: autoclaving, UV irradiation, trypsinization, rocking, 37 and 22° C.", "procedure": "A 400 μL amount of microgels was diluted in 6 mL of DMEM, and aliquots of 1 mL were seeded in five 35 mm plastic Petri dishes and one 40 mm glass Petri dish. Each dish containing microgels was treated as follows: (1) Autoclaving at 121° C. for 20 min using the glass dish, (2) UV irradiation for 30 min, and (3) 0.125% trypsin-EDTA at 37° C. for 5 min. In addition, the remaining dishes containing microgels were treated for 16-18 days as follows: (4) 37° C., 95% humidity, and 5% CO2, (5) 37° C., 95% humidity, and 5% CO2 under rocker conditions at 30 rpm, and (6) 22° C. on a shelf. Microgel imaging was done before treatment and follow up every other day. FIG. 31 summarizes the experimental design.\nMicrogel imaging was done at each condition and time point using a CLSM Zeiss® 710 or 880 by tile scanning with 15% overlapping and online stitching to capture as many microgels as possible from the dish. The Feret diameter and roundness of each microgel was calculated using ImageJ software by manually drawing up to 59 microgel contours per condition. All statistical data analysis and microgel descriptor plotting were conducted in Origin software. To assess the effect of the treatments on the microgel diameter and roundness, a Kruskal—Wallis test with Posthoc test pairwise Mann—Whitney U tests was applied."}, "[2]": {"system": "endothelial cells (HUVECs)", "test": "Cell culture on microgels, HUVEC", "type": "cell-based, human", "details": "first 24 h of culture", "procedure": "A 1.2×10^6 amount of cells suspended in 4 mL of complete cell culture media (300,000 cells/mL) was mixed with 200 μL of microgels by pipetting. The mix was seeded at […] in a 24-well low binding plate and kept at 37° C., 95% humidity, and 5% CO2 under rocker conditions at 30 rpm for 24 h. Then, cell-laden microgels were transferred into a tube by pipetting and spun down at 50 g for 5 min. The upper layer, containing cells not adherent to the microgels, was discarded. At this moment, cell-laden microgels were either resuspended with complete cell culture media to continue cell culture under rocker conditions or processed for staining.\nThe cell-laden microgels were fixed with 4% formaldehyde (v/v) in PBS and incubated for 30 min at 22° C. Later, formaldehyde was removed by centrifugation, and cell-laden microgels were washed twice with PBS in a similar way. Permeabilization buffer (6.3 mM MgCl2, 233.7 mM sucrose, 0.5% (v/v) Triton® X-100 in PBS) was kept at −20° C. and thawed just before use. […]\nProliferative cells were labeled by incubating cell-laden microgels with […] EdU in complete medium for 24 h in rocking culture at 30 rpm. […] EdU was detected following the manufacturer instructions by incubating cell-laden microgels with a Click-iT Plus reaction cocktail for 30 min at 22° C. protected from light. […]"}, "[3]": {"test": "Peptide gelation study (vial inversion method)", "type": "physicochemical", "details": "for Time to form hydrogel: 4 mg/mL, room temperature, in the presence of PBS", "procedure": "The preweighed (as per the required final concentration) peptide powder was dissolved in 0.9 mL of Milli-Q® water in a glass vial. The solution was vortexed for 5-10 s to obtain a clear and homogeneous solution. To this peptide solution, 0.1 mL of PBS buffer (10×, w/o Ca^2+ and Mg^2+) was added. To ensure a homogeneous distribution of buffer in the solution, the glass vial was further vortexed for 2-3 s. The glass vial was kept undisturbed on the bench, and hydrogel formation was observed using the vial inversion method, as shown in FIG. 9. The pH of the solutions of IVFK (SEQ ID NO. 1) and IVZK (SEQ ID NO. 2) was 5.57 and 5.48 at a 5 mg/mL concentration, respectively. After the addition of PBS, the pH changed to 7.7 and 7.6 for IVFK (SEQ ID NO. 1) and IVZK (SEQ ID NO. 2), respectively. The pH of the Milli-Q® water and phosphate buffer used was 6.7 and 7.4, respectively."}, "[4]": {"details": "22 C. at day 0, 2, 4, 10, 12, 14, 16, 18, the 5th table"}, "[5]": {"details": "22 C. at day 0, 2, 4, 10, 12, 14, 16, the 4th table"}, "[6]": {"details": "22 C., Autoclaving, UV and Trypsin, the 4th table"}, "[7]": {"details": "22 C., Autoclaving, UV and Trypsin, the 5th table"}, "[8]": {"details": "37 C. at day 0, 2, 4, 10, 12, 14, 16, 18, the 5th table"}, "[9]": {"details": "37 C. at day 0, 2, 4, 10, 12, 14, 16, the 4th table"}, "[10]": {"details": "37 C. at day 0, 2, 4, 16, 12, 14, 16, 18, the 5th table"}, "[11]": {"details": "37 C. with rocking at day 0, 2, 4, 10, 12, 14, 16, 18, the 5th table"}, "[12]": {"details": "37 C. with rocking at day 0, 2, 4, 10, 12, 14, 16, the 4th table"}, "[13]": {"details": "37 C. with rocking at day 0, 2, 4, 10, 12, 14, 36, 18, the 5th table"}}}
{"substance": "Ac-Ile-Val-Cha-Lys-NH2 (IVXK; HELM PEPTIDE1{[ac].I.V.[Cha].K.[am]}$$$$V2.0; SMILES CC[C@H](C)[C@H](NC(C)=O)C(=O)N[C@H](C(=O)N[C@@H](CC1CCCCC1)C(=O)N[C@@H](CCCCN)C(N)=O)C(C)C) [IVZK, self-assembling ultrashort tetrapeptide, Z = cyclohexylalanine, forms hydrogels and microgels]", "values": [{"measurement": "Microgel size and shape stability", "setting": "[1]", "value": "maintain their size and shape"}, {"measurement": "HUVEC cell adhesion and morphology on microgels", "setting": "[2]", "value": "cell adhesion and stretched morphology"}, {"measurement": "Critical gelation concentration in bulky hydrogels", "setting": "[3]", "value": 0.3, "unit": "wt %"}, {"measurement": "Time to form hydrogel", "setting": "[3]", "value": 10, "unit": "min"}]}
{"substance": "Ac-Ile-Val-Phe-Lys-NH2 (Ac-IVFK-NH2) [self-assembling ultrashort tetrapeptide, forms hydrogels and microgels]", "values": [{"measurement": "X2 (Kruskal-Wallis), microgel diameter", "setting": "[1]; [4]", "value": 10.76}, {"measurement": "X2 (Kruskal-Wallis), microgel roundness", "setting": "[1]; [4]", "value": 7.72}, {"measurement": "p (Kruskal-Wallis), microgel diameter", "setting": "[1]; [4]", "value": ">0.05"}, {"measurement": "p (Kruskal-Wallis), microgel roundness", "setting": "[1]; [4]", "value": ">0.05"}, {"measurement": "X2 (Kruskal-Wallis), microgel diameter", "setting": "[1]; [5]", "value": 1.69}, {"measurement": "X2 (Kruskal-Wallis), microgel roundness", "setting": "[1]; [5]", "value": 1.65}, {"measurement": "p (Kruskal-Wallis), microgel diameter", "setting": "[1]; [5]", "value": ">0.05"}, {"measurement": "p (Kruskal-Wallis), microgel roundness", "setting": "[1]; [5]", "value": ">0.05"}, {"measurement": "X2 (Kruskal-Wallis), microgel diameter", "setting": "[1]; [6]", "value": 3.99}, {"measurement": "X2 (Kruskal-Wallis), microgel roundness", "setting": "[1]; [6]", "value": 6.48}, {"measurement": "p (Kruskal-Wallis), microgel diameter", "setting": "[1]; [6]", "value": ">0.05"}, {"measurement": "p (Kruskal-Wallis), microgel roundness", "setting": "[1]; [6]", "value": ">0.05"}, {"measurement": "X2 (Kruskal-Wallis), microgel diameter", "setting": "[1]; [7]", "value": 5.61}, {"measurement": "X2 (Kruskal-Wallis), microgel roundness", "setting": "[1]; [7]", "value": 1.82}, {"measurement": "p (Kruskal-Wallis), microgel diameter", "setting": "[1]; [7]", "value": ">0.05"}, {"measurement": "p (Kruskal-Wallis), microgel roundness", "setting": "[1]; [7]", "value": ">0.05"}, {"measurement": "X2 (Kruskal-Wallis), microgel roundness", "setting": "[1]; [8]", "value": 12.93}, {"measurement": "p (Kruskal-Wallis), microgel roundness", "setting": "[1]; [8]", "value": ">0.05"}, {"measurement": "X2 (Kruskal-Wallis), microgel diameter", "setting": "[1]; [9]", "value": 1.28}, {"measurement": "X2 (Kruskal-Wallis), microgel roundness", "setting": "[1]; [9]", "value": 7.52}, {"measurement": "p (Kruskal-Wallis), microgel diameter", "setting": "[1]; [9]", "value": ">0.05"}, {"measurement": "p (Kruskal-Wallis), microgel roundness", "setting": "[1]; [9]", "value": ">0.05"}, {"measurement": "X2 (Kruskal-Wallis), microgel diameter", "setting": "[1]; [10]", "value": 13.16}, {"measurement": "p (Kruskal-Wallis), microgel diameter", "setting": "[1]; [10]", "value": ">0.05"}, {"measurement": "p (Kruskal-Wallis), microgel diameter", "setting": "[1]; 37 C. with mocking at day 0, 2, 4, 10, 12, 14, 16, the 4th table", "value": ">0.05"}, {"measurement": "X2 (Kruskal-Wallis), microgel diameter", "setting": "[1]; [11]", "value": 10.89}, {"measurement": "p (Kruskal-Wallis), microgel diameter", "setting": "[1]; [11]", "value": ">0.05"}, {"measurement": "X2 (Kruskal-Wallis), microgel diameter", "setting": "[1]; [12]", "value": 5.81}, {"measurement": "X2 (Kruskal-Wallis), microgel roundness", "setting": "[1]; [12]", "value": 3.62}, {"measurement": "p (Kruskal-Wallis), microgel roundness", "setting": "[1]; [12]", "value": ">0.05"}, {"measurement": "X2 (Kruskal-Wallis), microgel roundness", "setting": "[1]; [13]", "value": 4.28}, {"measurement": "p (Kruskal-Wallis), microgel roundness", "setting": "[1]; [13]", "value": ">0.05"}, {"measurement": "Microgel size and shape stability", "setting": "[1]", "value": "maintain their size and shape"}, {"measurement": "HUVEC cell adhesion and morphology on microgels", "setting": "[2]", "value": "cell adhesion and stretched morphology"}, {"measurement": "Critical gelation concentration in bulky hydrogels", "setting": "[3]", "value": 0.4, "unit": "wt %"}, {"measurement": "Time to form hydrogel", "setting": "[3]", "value": 10, "unit": "min"}]}
